These are literature values, as cited in article PMC8979592.

The target of the data set is clathrin (UniProt Q00610).

As usually defined, the Kd is the constant that tells how readily two partners part at equilibrium. With clathrin (from UniProt Q00610), the Kd was 120 µM.
